{
  "source": "paper PMC9259562",
  "about": "(Scientific Reports, 2022)",
  "biological_target": "Stx2a A-subunit (dissociated from recombinant Stx2a) (enterohemorrhagic Escherichia coli …, UniProt P09385 23-319)",
  "sequence (P09385 23-319)": "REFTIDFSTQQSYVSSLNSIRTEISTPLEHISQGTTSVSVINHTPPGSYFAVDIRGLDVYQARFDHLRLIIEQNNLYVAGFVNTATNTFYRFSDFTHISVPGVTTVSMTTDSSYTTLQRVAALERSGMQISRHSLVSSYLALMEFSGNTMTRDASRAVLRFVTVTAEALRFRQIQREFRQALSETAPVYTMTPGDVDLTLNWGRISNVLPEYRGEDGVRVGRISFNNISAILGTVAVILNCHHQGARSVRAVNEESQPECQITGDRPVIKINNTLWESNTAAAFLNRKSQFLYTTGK",
  "assay": "AlphaScreen or HTRF",
  "conditions": "both partners purified",
  "note": "Ends that are not written are not given here.",
  "data": [
    {"binder": "RRRRA-NH2 (source: synthetic peptide)", "note": "[R4A-mono]", "values": [
      {"measurement": "IC50", "result": 2700, "unit": "nM"}
    ]}
  ]
}
